Common to all, as to assay type: biochemical, Azospirillum brasilense
Substrate in data set [1]: CCCCCCC(=O)C(=O)O
The data set is described as follows: HTP AbPPDC coupled enzyme assay (ADH6/NADPH), 2-ketoacid decarboxylation kinetics, Q536I. The conditions noted are these: other: pH 6.8, 30° C, 2-ketoacid 0 to 4 mM, Michaelis-Menten equation, mean ± standard error. On the procedure: (§1) The evaluation of the AbPPDC variants is performed in two steps using the high-throughput enzyme assay described hereinbelow. Initially, all the variants are tested for activity against a single high concentration (2 mM) of 2-KH and 2-KN (as shown in Table 1). Following the initial evaluation, detailed kinetic analysis is performed on a select number of variants to determine the maximal rate (kcat), substrate concentration yielding half maximal rate (K0.5, equivalent of KM for enzymes following Michaelis-Menten kinetics), and the catalytic efficiency of the enzyme (kcat/K0.5) against 2-KO and 2-KN (as shown in Table 2). AbPPDC variants, having higher specificity (higher kcat/K0.5) for 2-KN, will be efficient in producing octanal and chemicals derived from it inside the cells.
(§2) To evaluate the substrate specificity of the wild type AbPPDC and its variants listed in Table 1, genes of all the proteins are expressed in E. coli cells separately and the protein products are isolated from the cells. The gene sequence of the Azospirillum brasilense phenylpyruvate decarboxylase (GenBank: Accession no. L26240) is downloaded from the NCBI database. Codons of 13 additional amino acids that include six (6) histidines (his) are added upstream of the Met-1 codon of the AbPPDC gene sequence. Such a modification allows expression of a Histidine-tagged AbPPDC having 13 additional amino acids on the N-terminus. The additional amino acids are attached as an aid for purifying the protein in a single step using Ni-NTA chromatography. The entire AbPPDC sequence with 13 additional amino acids (SEQ ID 2) is chemically synthesized and then cloned into the pRSFDuet-1 vector (EMD Biosciences) downstream of the T7 polymerase promoter by Synthetic Genomics, Inc. (San Diego, Calif.). The final vector is sequenced by Synthetic Genomics, Inc. before shipping.
(§3) Genes of the AbPPDC variants listed in Table 1 are either chemically synthesized or generated using New England Biolab's Q5 Site-directed Mutagenesis Kit (cat. no. E0554S) and cloned into the pRSFDuet-1 vector. The pRSFDuet-1 vector containing AbPPDC or the AbPPDC variant gene is transformed into E. coli, AbPPDC or its variant, then expressed and eventually purified, as described below.
(§4) A high-throughput AbPPDC coupled enzyme assay is developed for evaluating the substrate specificity of AbPPDC variants. The assay involves reducing the aldehyde produced from AbPPDC mediated 2-ketoacid decarboxylation, using an alcohol dehydrogenase (ADH6, GenBank: Accession No. NP 014051.3). The initial velocities of the AbPPDC catalyzed reactions are determined from the rates of oxidation of reduced nicotinamide adenine dinucleotide phosphate (NADPH) occurring during the ADH6 catalyzed reduction of aldehyde.
(§5) The HTP screening assay involves incubating 2 mM 2-KH or 2 mM 2-KN with 0.5 mM thiamine diphosphate, 0.35 mM NADPH, 4.7 micrograms (μg) of yeast ADH6 (GenBank: Accession No. NP 014051.3) and 0.3 milligrams per milliliter (mg/mL) bovine serum albumin (BSA) in AbPPDC assay buffer (50 mM 3-(N-morpholino)propanesulfonic acid, pH 6.8, containing 2.5 mM magnesium chloride (MgCl2)) at 30° C. The reaction is started by addition at 30° C. of working enzyme stock containing from 0.5 μg to 3.5 μg of AbPPDC variant diluted in AbPPDC assay buffer containing 1 mg/mL BSA. The plate containing the 200 μL of reaction mixture is centrifuged at 2500×g for 15 sec and the absorbance change of the reaction mixture followed spectrophotometrically at 340 nm on a BioTek™ plate reader, pre-equilibrated at 30° C. Initial velocity of the enzyme reaction is calculated using the rate of NADPH consumption at 340 nm and the extinction coefficient of NADPH (6.22 mM^−1 cm^−1). The activity of all the variants is normalized with the amount of enzyme present in the reaction mixture and expressed as nanomoles per minute per milligram (nmol·min^−1·mg^−1). […]

Substrate in data set [2]: CCCCCCCC(=O)C(=O)O
The data set is described as above. The conditions noted are these: other: pH 6.8, 30° C, 2-ketoacid 0 to 4 mM, Michaelis-Menten equation, mean ± standard error. On the procedure:
as §1, §2, §3, §4, §5

Substrate in data set [3]: CCCCCCC(=O)C(=O)O
Briefly: HTP AbPPDC coupled enzyme assay (ADH6/NADPH), 2-ketoacid decarboxylation kinetics, F385L. The settings on record: other: pH 6.8, 30° C, 2-ketoacid 0 to 4 mM, Hill equation, mean ± standard error. On the procedure: as §1, §2, §3, §4, §5

Substrate in data set [4]: CCCCCCCC(=O)C(=O)O
The description is as above. The settings on record: other: pH 6.8, 30° C, 2-ketoacid 0 to 4 mM, Hill equation, mean ± standard error. On the procedure: as §1, §2, §3, §4, §5

Substrate in data set [5]: CCCCCCC(=O)C(=O)O
The data set is described as follows: HTP AbPPDC coupled enzyme assay (ADH6/NADPH), 2-ketoacid decarboxylation kinetics, wild type. The settings on record: other: pH 6.8, 30° C, 2-ketoacid 0 to 4 mM, Hill equation, mean ± standard error. On the procedure:
as §1, §2, §4
(§6) The HTP screening assay involves incubating 2 mM 2-KH or 2 mM 2-KN with 0.5 mM thiamine diphosphate, 0.35 mM NADPH, 4.7 micrograms (μg) of yeast ADH6 (GenBank: Accession No. NP 014051.3) and 0.3 milligrams per milliliter (mg/mL) bovine serum albumin (BSA) in AbPPDC assay buffer (50 mM 3-(N-morpholino)propanesulfonic acid, pH 6.8, containing 2.5 mM magnesium chloride (MgCl2)) at 30° C. The reaction is started by addition at 30° C. of working enzyme stock containing from 0.5 μg to 3.5 μg of AbPPDC variant diluted in AbPPDC assay buffer containing 1 mg/mL BSA. The plate containing the 200 μL of reaction mixture is centrifuged at 2500×g for 15 sec and the absorbance change of the reaction mixture followed spectrophotometrically at 340 nm on a BioTek™ plate reader, pre-equilibrated at 30° C. Initial velocity of the enzyme reaction is calculated using the rate of NADPH consumption at 340 nm and the extinction coefficient of NADPH (6.22 mM^−1 cm^−1). The activity of all the variants is normalized with the amount of enzyme present in the reaction mixture and expressed as nanomoles per minute per milligram (nmol·min^−1·mg^−1). Protein concentrations for normalizing the activities are determined using the 660 nm total protein assay kit from Pierce Biotechnology Inc., available from Thermo Fisher Scientific, Inc., using BSA as the standard.
(§7) The kinetic parameters of the decarboxylation of 2-ketooctanoate (2-KO) and 2-ketononanoate (2-KN) by AbPPDC and its variants are also determined using the same HTP AbPPDC coupled enzyme assay, except that the concentrations of 2-KO or 2-KN are varied from 0 to 4 mM. […]

Substrate in data set [6]: CCCCCCCC(=O)C(=O)O
Described as above. The conditions noted are these: other: pH 6.8, 30° C, 2-ketoacid 0 to 4 mM, Hill equation, mean ± standard error. On the procedure:
as §1, §2, §4, §6, §7

B1: Azospirillum brasilense phenylpyruvate decarboxylase (AbPPDC) variant Q536I, SEQ ID 38 (Azospirillum brasilense; Q536I) (protein)
chain: MKLAEALLRALKDRGAQAMFGIPGDFALPFFKVAEETQILPLHTLSHEPAVGFAADAAARYSSTLGVAAVTYGAGAFNMVNAVAGAYAEKSPVVVISGAPGTTEGNAGLLLHHQGRTLDTQFQVFKEITVAQARLDDPAKAPAEIARVLGAARALSRPVYLEIPRNMVNAEVEPVGDDPAWPVDRDALAACADEVLAAMRSATSPVLMVCVEVRRYGLEAKVAELAQRLGVPVVTTFMGRGLLADAPTPPLGTYIGVAGDAEITRLVEESDGLFLLGAILSDTNFAVSQRKIDLRKTIHAFDRAVTLGYHTYADIPLAGLVDALLEGLPPSDRTTRGKEPHAYPTGLQADGEPIAPMDIARAVNDRVRAGQEPLLIAADMGDCLFTAMDMIDAGLMAPGYYAGMGFGVPAGIGAQCVSGGKRILTVVGDGAFQMTGWELGNCRRLGIDPIVILFNNASWEMLRTFQPESAFNDLDDWRFADMAAGMGGDGVRVRTRAELKAALDKAFATRGRFQLIEAMIPRGVLSDTLARFVQGIKRLHAAPRE
notes: made in house; host or cells: E. coli BL21(DE3)
The kcat is the number of substrate molecules converted per active site and unit of time at saturation. One may read the kcat/Km as the turnover number divided by the Michaelis constant. For the protein B1, in data set [1], the K0.5 stood at 0.71 ± 0.07 mM, the kcat was found to be 0.533 ± 0.0183 s⁻¹ and the kcat/Km came out at 750 ± 83 M⁻¹ s⁻¹. Further, in data set [2], the K0.5 was 0.69 ± 0.09 mM, the kcat was 1.05 ± 0.05 s⁻¹ and the kcat/Km worked out at 1530 ± 217 M⁻¹ s⁻¹.

B2: Azospirillum brasilense phenylpyruvate decarboxylase (AbPPDC) variant F385L, SEQ ID 8 (Azospirillum brasilense; F385L) (protein)
chain: MKLAEALLRALKDRGAQAMFGIPGDFALPFFKVAEETQILPLHTLSHEPAVGFAADAAARYSSTLGVAAVTYGAGAFNMVNAVAGAYAEKSPVVVISGAPGTTEGNAGLLLHHQGRTLDTQFQVFKEITVAQARLDDPAKAPAEIARVLGAARALSRPVYLEIPRNMVNAEVEPVGDDPAWPVDRDALAACADEVLAAMRSATSPVLMVCVEVRRYGLEAKVAELAQRLGVPVVTTFMGRGLLADAPTPPLGTYIGVAGDAEITRLVEESDGLFLLGAILSDTNFAVSQRKIDLRKTIHAFDRAVTLGYHTYADIPLAGLVDALLEGLPPSDRTTRGKEPHAYPTGLQADGEPIAPMDIARAVNDRVRAGQEPLLIAADMGDCLLTAMDMIDAGLMAPGYYAGMGFGVPAGIGAQCVSGGKRILTVVGDGAFQMTGWELGNCRRLGIDPIVILFNNASWEMLRTFQPESAFNDLDDWRFADMAAGMGGDGVRVRTRAELKAALDKAFATRGRFQLIEAMIPRGVLSDTLARFVQGQKRLHAAPRE
notes: as for B1
For B2, in data set [3], the K0.5 was 2.3 ± 0.5 mM, the kcat was 0.0283 ± 0.005 s⁻¹ and the kcat/Km was found to be 13 ± 3.3 M⁻¹ s⁻¹. Moreover, in data set [4], the K0.5 is on record as 2.39 ± 0.26 mM, the kcat was 0.283 ± 0.017 s⁻¹ and the kcat/Km came out at 117 ± 16.7 M⁻¹ s⁻¹.

B3: Azospirillum brasilense phenylpyruvate decarboxylase (AbPPDC), wild type, SEQ ID 4 (GenBank L26240), 13-amino acid N-terminal histidine tag (Azospirillum … (protein)
chain: MKLAEALLRALKDRGAQAMFGIPGDFALPFFKVAEETQILPLHTLSHEPAVGFAADAAARYSSTLGVAAVTYGAGAFNMVNAVAGAYAEKSPVVVISGAPGTTEGNAGLLLHHQGRTLDTQFQVFKEITVAQARLDDPAKAPAEIARVLGAARALSRPVYLEIPRNMVNAEVEPVGDDPAWPVDRDALAACADEVLAAMRSATSPVLMVCVEVRRYGLEAKVAELAQRLGVPVVTTFMGRGLLADAPTPPLGTYIGVAGDAEITRLVEESDGLFLLGAILSDTNFAVSQRKIDLRKTIHAFDRAVTLGYHTYADIPLAGLVDALLEGLPPSDRTTRGKEPHAYPTGLQADGEPIAPMDIARAVNDRVRAGQEPLLIAADMGDCLFTAMDMIDAGLMAPGYYAGMGFGVPAGIGAQCVSGGKRILTVVGDGAFQMTGWELGNCRRLGIDPIVILFNNASWEMLRTFQPESAFNDLDDWRFADMAAGMGGDGVRVRTRAELKAALDKAFATRGRFQLIEAMIPRGVLSDTLARFVQGQKRLHAAPRE
notes: as for B1
Turning to B3, in data set [5], the K0.5 stood at 1.7 ± 0.1 mM, the kcat is 0.25 ± 0.012 s⁻¹ and the kcat/Km was 150 ± 12 M⁻¹ s⁻¹. Also, in data set [6], the K0.5 was 1.23 ± 0.02 mM, the kcat was 0.333 ± 0 s⁻¹ and the kcat/Km came out at 270 ± 6.7 M⁻¹ s⁻¹.
